Tests used:
[1] = Substrate specificity of GDH-B mutants; assay type: biochemical; settings: galactose 20 mM; activity against glucose = 100%
Procedure: Figure 3. Substrate specificity of wild-type GDH-B (W.T.), DEE-His, and HI against glucose, lactose, maltose, 3-O-methylglucose (3-O-m glucose), allose, galactose, or 2-deoxyglucose (2DG). Each substrate concentration was 20 mM. The enzymatic activity of each enzyme against glucose was set as 100%.
(§1) GDH-B activity was measured using 0.06 mM 2,6-dichlorophenolindophenol (DCIP) and 0.6 mM phenazine methosulfate (PMS) following 30 min pre-incubation in 10 mM MOPS–NaOH buffer (pH 7.0) containing 1 μM PQQ and 1 mM CaCl2 at room temperature (25 °C). The enzyme activity was determined by measuring the decrease in absorbance of DCIP at 600 nm. For the inhibition assay, the residual activity of 0.7 nM GDH-B for 50 mM D-glucose was measured following 1 h incubation with various concentrations of each peptide. GDH-B activity in the absence of peptide was defined as 100%.

[2] = Kinetic parameters of GDH-B and mutant enzymes; assay type: biochemical
Procedure: as §1

[3] = DCIP/PMS assay, 10 mM MOPS–NaOH pH 7.0, 1 μM PQQ, 1 mM CaCl2, 25 °C

B1: DEE-His: GDH-B mutant V453D-Q454E-K455E, 6-His tag fused to the C-terminal, antagonistic template (protein)
chain: DVPLTPSQFAKAKSENFDKKVILSNLNKPHALLWGPDNQIWLTERATGKILRVNPESGSVKTVFQVPEIVNDADGQNGLLGFAFHPDFKNNPYIYISGTFKNPKSTDKELPNQTIIRRYTYNKSTDTLEKPVDLLAGLPSSKDHQSGRLVIGPDQKIYYTIGDQGRNQLAYLFLPNQAQHTPTQQELNGKDYHTYMGKVLRLNLDGSIPKDNPSFNGVVSHIYTLGHRNPQGLAFTPNGKLLQSEQGPNSDDEINLIVKGGNYGWPNVAGYKDDSGYAYANYSAAANKSIKDLAQNGVKVAAGVPVTKESEWTGKNFVPPLKTLYTVQDTYNYNDPTCGEMTYICWPTVAPSSAYVYKGGKKAITGWENTLLVPSLKRGVIFRIKLDPTYSTTYDDAVPMFKSNNRYRDVIASPDGNVLYVLTDTAGNDEEDDGSVTNTLENPGSLIKFTYKAK
modifications: left off: His6, C-terminal, kept
notes: GDH-B mutant V453D-Q454E-K455E, 6-His tag fused to the C-terminal, antagonistic template
relative activity toward galactose (in words) [1]: higher relative activity toward galactose
Km [2, 3]: 91 mM
Vmax [2, 3]: 28 U/mg protein
Km compared to wild-type enzyme (in words) ([2]; compared to the wild-type enzyme): increased Km value
GDH activity with PQQ (in words) ([2]; refolded DEE-His, with PQQ): showed GDH activity with PQQ

Source: PMC3876041, “Screening of Peptide Ligands for Pyrroloquinoline Quinone Glucose Dehydrogenase Using Antagonistic Template-Based Biopanning” (International Journal of Molecular Sciences, 2013)
